From the supplement of paper PMC9112550, “Optimization of the antimicrobial peptide Bac7 by deep mutational scanning” (BMC Biology, 2022) come the findings set out here.

The subject of the series is Escherichia coli TOP10. As to the kind of experiment: shrunken log2 fold change of peptide-encoding DNA abundance (4.5 h post-induction vs induction); higher = less antimicrobial activity (less host growth inhibition). The conditions noted are these: time post-induction: 4.5 h; library: site-saturation at positions 5, 18, 19, 20.
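Also: peptides expressed intracellularly from a pBAD plasmid library in pooled LB shake-flask culture, induced with 0.3% L-arabinose, DNA abundance read by NGS, three biological replicates, DESeq2 with apeglm shrinkage.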

Turning to RRIRQRPPRLPRPRPRPYQAPRP, the “shrunken log2 fold change” value is -0.232.
Consider RRIRRRPPRLPRPRPRPFMAPRP, for which the “shrunken log2 fold change” value was determined as 0.113.
The result for RRIRQRPPRLPRPRPRPTGKPRP reads -0.00964.
To RRIRDRPPRLPRPRPRPQHNPRP belongs -0.554; to RRIRPRPPRLPRPRPRPNPIPRP, -0.237; to RRIRCRPPRLPRPRPRPLRKPRP, 0.734.
The result for RRIRHRPPRLPRPRPRPPKAPRP reads 0.0427.
For the sequence RRIRDRPPRLPRPRPRPEHYPRP, the “shrunken log2 fold change” value is -0.0548.
The result for RRIRARPPRLPRPRPRPREIPRP reads 0.865; that for RRIRNRPPRLPRPRPRPPWPPRP, 0.387.
The result for RRIRWRPPRLPRPRPRPGAFPRP reads 0.3; that for RRIRMRPPRLPRPRPRPTPWPRP, 0.844; that for RRIRCRPPRLPRPRPRPEFIPRP, -0.551.
The result for RRIRVRPPRLPRPRPRPYFYPRP reads -0.474; that for RRIRVRPPRLPRPRPRPGWGPRP, 0.621.
With RRIRDRPPRLPRPRPRPRQKPRP, the “shrunken log2 fold change” value stood at 0.56.
To RRIRYRPPRLPRPRPRPVHMPRP belongs -0.0179; to RRIRWRPPRLPRPRPRPMMAPRP, 0.452.
For the sequence RRIRFRPPRLPRPRPRPLKIPRP, the “shrunken log2 fold change” value is -0.24.
To RRIRPRPPRLPRPRPRPLPVPRP belongs -0.4; to RRIRVRPPRLPRPRPRPHCYPRP, -0.234.
The result for RRIRSRPPRLPRPRPRPNFGPRP reads -0.265; that for RRIRPRPPRLPRPRPRPYKYPRP, -1.13.
To RRIRNRPPRLPRPRPRPLWPPRP belongs 0.14.
Take RRIRVRPPRLPRPRPRPNVDPRP: the “shrunken log2 fold change” value is -0.0826.
The result for RRIRKRPPRLPRPRPRPQFMPRP reads -0.54.
To RRIRVRPPRLPRPRPRPDEMPRP belongs 0.0261; to RRIRRRPPRLPRPRPRPANRPRP, -0.0151; to RRIRWRPPRLPRPRPRPVNFPRP, 0.0606.
For RRIRERPPRLPRPRPRPSTNPRP, the “shrunken log2 fold change” value is -0.317.
In the case of RRIRPRPPRLPRPRPRPHSKPRP, the “shrunken log2 fold change” value was -0.14.
RRIRKRPPRLPRPRPRPSIFPRP: the “shrunken log2 fold change” value was -0.0205.
The result for RRIRNRPPRLPRPRPRPSFAPRP reads 0.00213; that for RRIRHRPPRLPRPRPRPQIFPRP, -0.135; that for RRIRARPPRLPRPRPRPPACPRP, 0.817.
As for RRIRDRPPRLPRPRPRPNNHPRP, the “shrunken log2 fold change” value is -0.543.
The result for RRIRIRPPRLPRPRPRPKKNPRP reads -0.249; that for RRIRCRPPRLPRPRPRPVCLPRP, -0.168.
The result for RRIRKRPPRLPRPRPRPCLTPRP reads -0.0179; that for RRIRPRPPRLPRPRPRPQFTPRP, -0.285; that for RRIRPRPPRLPRPRPRPVDQPRP, -0.256.
As for RRIRPRPPRLPRPRPRPVPKPRP, the “shrunken log2 fold change” value turned out to be 0.34.
To RRIRNRPPRLPRPRPRPAKKPRP belongs -0.0505.
To RRIRWRPPRLPRPRPRPGAKPRP belongs 0.21; to RRIRCRPPRLPRPRPRPCLDPRP, 0.11.
For RRIRRRPPRLPRPRPRPVTIPRP, the “shrunken log2 fold change” value was determined as 0.297.
The result for RRIRFRPPRLPRPRPRPNNNPRP reads -0.714; that for RRIRYRPPRLPRPRPRPLAKPRP, 0.19; that for RRIRVRPPRLPRPRPRPVMEPRP, -0.186.
With RRIRMRPPRLPRPRPRPSLSPRP, the “shrunken log2 fold change” value came to 0.22.
To RRIRCRPPRLPRPRPRPEMGPRP belongs 0.0517; to RRIRKRPPRLPRPRPRPQMGPRP, 0.0203.
The result for RRIRERPPRLPRPRPRPQLYPRP reads -0.441; that for RRIRTRPPRLPRPRPRPESTPRP, -0.0383; that for RRIRCRPPRLPRPRPRPCCTPRP, -0.238.
In the case of RRIRVRPPRLPRPRPRPTHHPRP, the “shrunken log2 fold change” value stood at 0.586.
The result for RRIRPRPPRLPRPRPRPSKTPRP reads 0.0619; that for RRIRYRPPRLPRPRPRPMYHPRP, -0.707.
To RRIRCRPPRLPRPRPRPGMIPRP belongs -0.0447; to RRIRIRPPRLPRPRPRPVKPPRP, 0.0254.
For RRIRLRPPRLPRPRPRPWLMPRP, the “shrunken log2 fold change” value is -0.102.
As to RRIRGRPPRLPRPRPRPHKLPRP, the “shrunken log2 fold change” value came to 0.213.
The result for RRIRTRPPRLPRPRPRPRLAPRP reads 0.453; that for RRIRARPPRLPRPRPRPTEKPRP, 0.413; that for RRIRCRPPRLPRPRPRPTLVPRP, 0.12.
With RRIRVRPPRLPRPRPRPTENPRP, the “shrunken log2 fold change” value was determined as 0.00381.
The result for RRIRHRPPRLPRPRPRPGENPRP reads -0.00146.
Turning to RRIRMRPPRLPRPRPRPDVRPRP, the “shrunken log2 fold change” value was 0.111.
The result for RRIRGRPPRLPRPRPRPVGKPRP reads 0.646; that for RRIRCRPPRLPRPRPRPPPKPRP, 1.51; that for RRIRDRPPRLPRPRPRPVFRPRP, 0.18.
To RRIRFRPPRLPRPRPRPWWEPRP belongs 0.0381; to RRIRSRPPRLPRPRPRPCAPPRP, 0.0418; to RRIRTRPPRLPRPRPRPRSNPRP, 0.186.
To RRIRPRPPRLPRPRPRPAVRPRP belongs -0.246.
RRIRLRPPRLPRPRPRPIWGPRP: the “shrunken log2 fold change” value stood at 0.112.
Consider RRIRWRPPRLPRPRPRPMSLPRP, for which the “shrunken log2 fold change” value was -0.0247.
To RRIRMRPPRLPRPRPRPQECPRP belongs 0.313; to RRIRLRPPRLPRPRPRPLTSPRP, -0.179; to RRIRSRPPRLPRPRPRPICVPRP, -0.111.
Take RRIRPRPPRLPRPRPRPEFHPRP: the “shrunken log2 fold change” value was -0.0272.
For the sequence RRIRIRPPRLPRPRPRPIMYPRP, the “shrunken log2 fold change” value is -0.0494.
As to RRIRWRPPRLPRPRPRPFVKPRP, the “shrunken log2 fold change” value was -0.753.
Turning to RRIRIRPPRLPRPRPRPACIPRP, the “shrunken log2 fold change” value was -0.69.
The result for RRIRMRPPRLPRPRPRPWRFPRP reads 0.0528; that for RRIRSRPPRLPRPRPRPRMSPRP, 0.0167; that for RRIRIRPPRLPRPRPRPPANPRP, -0.0976.
As to RRIRYRPPRLPRPRPRPHDKPRP, the “shrunken log2 fold change” value was -0.661.
The result for RRIRWRPPRLPRPRPRPSDNPRP reads -0.14.
With RRIRQRPPRLPRPRPRPFSVPRP, the “shrunken log2 fold change” value is -0.199.
In the case of RRIRSRPPRLPRPRPRPTTWPRP, the “shrunken log2 fold change” value amounted to 0.053.
